In paper PMC8809517, “Cofactor-independent RNA editing by a synthetic S-type PPR protein” one finds Kd data, which are given here for four molecules.

What all share (experiment): high-throughput RNA pulldown from lysate on Ni-NTA beads; HRP: 50 mM Tris pH 8, 150 mM NaCl, 1 mM beta-mercaptoethanol, 50 ug/ml BSA, 3 ug/ml yeast RNA, 0.5% heparin; ITC and FP: Tris pH 8, 200 mM KCl, 5% glycerol; MST: 50 mM Tris pH 8, 200 mM NaCl, 1 mM DTT, BSA, heparin, 0.05% Tween 20
Holding throughout (conditions): tags: N-terminal His-eGFP

In series [1] the target is T1, GFP-9S library array, motif 4 ND N98R (synthetic construct, N98R).
T1 chain: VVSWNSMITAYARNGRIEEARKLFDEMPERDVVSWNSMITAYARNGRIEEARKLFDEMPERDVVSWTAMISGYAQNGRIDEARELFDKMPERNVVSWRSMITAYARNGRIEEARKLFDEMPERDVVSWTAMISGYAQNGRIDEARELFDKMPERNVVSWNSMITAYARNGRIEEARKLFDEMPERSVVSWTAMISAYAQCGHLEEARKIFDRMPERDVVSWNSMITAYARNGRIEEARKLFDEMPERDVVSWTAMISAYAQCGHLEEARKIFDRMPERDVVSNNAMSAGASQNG

Series [2] concerns the target T2, GFP-9S library array, motif 4 ND N98S;D124R (synthetic construct, N98S;D124R).
T2 chain: T1 chain with R98S, D124R

The target in series [3] is T3, GFP-9S library array, motif 4 ND N98M;D124H (synthetic construct, N98M;D124H).
T3 chain: T1 chain with R98M, D124H

Series [4] deals with T4, GFP-9S library array, motif 4 ND N98C;D124W (synthetic construct, N98C;D124W).
T4 chain: T1 chain with R98C, D124W

The target of series [5] is T5, GFP-9S library array, motif 4 ND N98G;D124F (synthetic construct, N98G;D124F).
T5 chain: T1 chain with R98G, D124F

Where a chain is given by its changes, count along the chain named.

As usually defined, the Kd is the equilibrium constant for the complex coming apart. A higher Kd goes with a looser complex. As to AUUAUACGUGA (ssRNA) [IR-rpoA-U], the Kd in series [1] (label: 5' IRDye 800CW) is 428 nM; in series [2] (label: 5' IRDye 800CW) it was 109 nM; in series [3] (label: 5' IRDye 800CW) it was 412 nM; in series [4] (label: 5' IRDye 800CW) it was 234 nM; in series [5] (label: 5' IRDye 800CW), 119 nM.
On the same counts, the results for AUUAAACGUGA (ssRNA) [IR-rpoA-A] are 645 nM, 63.5 nM, 574 nM, 171 nM and 218 nM.
Consider AUUAGACGUGA (ssRNA) [Cy5-rpoA-G], for which the Kd in series [1] (label: 5' Cy5) was determined as 253 nM; in series [2] (label: 5' Cy5), 97.8 nM; in series [3] (label: 5' Cy5) it was 257 nM; in series [4] (label: 5' Cy5), 84.9 nM; in series [5] (label: 5' Cy5), 95.6 nM.
On the same counts, the results for AUUACACGUGA (ssRNA) [Cy5-rpoA] are 207 nM, 87.7 nM, 242 nM, 86.1 nM and 69.1 nM.
